Measured values published in patent US7119077B1, “Multimeric forms of members of the steroid/thyroid superfamily of receptors with the ultraspiracle receptor” (The Salk Institute for Biological Studies, priority 1990, dated 2006).

How the values were obtained:
EcR/usp complex = EcR/usp complex (Drosophila melanogaster, UniProt P20153+P34021); settings: cold oligonucleotide competitor, in vitro translated EcR and usp
Description: To generate protein in vitro, suitable plasmids for human (h)RARα, hTRB, hVDR, rat PPAR, Drosophila (d)usp and dEcR were linearized with restriction enzyme 3′ of the termination codon. The linearized templates were used for in vitro transcription and then translation using rabbit reticulocyte lysate according to manufacturer's instruction (Promega). […] Schneider cell extracts were prepared following the procedures in Damm et al., Nature Vol. 339:593–597 (1989) and Umesono et al. (1991), supra. The extraction buffer contained 0.4 M KCl in 20 mM HEPES pH 7.5, 20% glycerol, 2 mM DTT and 1 mM PMSF.
For gel mobility shift assay, proteins were incubated with binding buffer, which contained 100 mM KCl, 7.5% glycerol, 20 mM HEPES pH 7.5, 2 mM DTT and 0.1% NP-40, on ice for 20 minutes in the presence of 2 μg of nonspecific competitor poly dI-dC and other oligo competitors. Then approximately 1 ng of ^32P-dCTP probe, which was labelled to specific activity about 1–5×10^8 cpm/μg by fill-in reaction with Klenow fragments, was added to the reaction and incubated at room temperature for 20 minutes. […] The reaction was then loaded into 5% non-denaturing polyacrylamide gel in 0.5×TBE running buffer [1×TBE comprises 0.089 M Tris borate, 0.089 M boric acid and 0.002 M EDTA]. After electrophoresis, the gel was dried for autoradiography.
The ability of EcR/usp complex to recognize this EcRE was examined.

RARα (human) = biological target: T1, RARα (human) (Homo sapiens, UniProt P10276 P10276:1-462); experiment: EMSA; RARα alone; settings: label: 32P
T1 sequence: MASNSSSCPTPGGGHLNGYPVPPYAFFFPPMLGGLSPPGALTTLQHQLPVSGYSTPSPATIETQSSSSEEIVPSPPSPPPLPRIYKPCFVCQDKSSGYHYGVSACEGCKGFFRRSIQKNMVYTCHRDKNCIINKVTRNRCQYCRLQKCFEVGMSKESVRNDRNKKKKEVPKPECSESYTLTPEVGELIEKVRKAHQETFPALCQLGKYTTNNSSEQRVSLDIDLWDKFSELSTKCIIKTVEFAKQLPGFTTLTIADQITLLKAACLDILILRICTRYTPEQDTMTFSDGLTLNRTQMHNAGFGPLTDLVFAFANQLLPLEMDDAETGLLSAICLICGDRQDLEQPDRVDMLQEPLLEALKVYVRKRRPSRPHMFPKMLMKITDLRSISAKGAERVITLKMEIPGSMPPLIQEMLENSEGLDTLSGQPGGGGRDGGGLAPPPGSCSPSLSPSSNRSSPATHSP
Description: (§1) For gel mobility shift assay, proteins were incubated with binding buffer, which contained 100 mM KCl, 7.5% glycerol, 20 mM HEPES pH 7.5, 2 mM DTT and 0.1% NP-40, on ice for 20 minutes in the presence of 2 μg of nonspecific competitor poly dI-dC and other oligo competitors. Then approximately 1 ng of ^32P-dCTP probe, which was labelled to specific activity about 1-5×10^8 cpm/μg by fill-in reaction with Klenow fragments, was added to the reaction and incubated at room temperature for 20 minutes. Antiserum or preimmune serum was added 10 minutes after the probe was added. The reaction was then loaded into 5% non-denaturing polyacrylamide gel in 0.5×TBE running buffer [1×TBE comprises 0.089 M Tris borate, 0.089 M boric acid and 0.002 M EDTA]. After electrophoresis, the gel was dried for autoradiography.
In gel mobility shift assays using a ^32P-labelled natural RAR response element—βRARE [see SEQ ID NO:15, see also de The et al., in Nature Vol. 343:177–180 (1990); and Sucov et al., in Proc. Natl. Acad. Sci. USA Vol. 87:5392–5398 (1990)] as the probe, in vitro translated RARα was incubated with probe under binding conditions either alone or with 2 µg of S2 extracts or embryo extracts.
Neither in vitro translated usp alone, nor RARα alone, bound to a βRARE probe. […] This complex comigrated with the complex detected in the RAR and cell extract mixing experiments. […]

ultraspiracle (usp) [1] = biological target: T2, ultraspiracle (usp) (Drosophila melanogaster, UniProt P20153 SEQ:1-513); experiment: EMSA; usp alone; settings: label: 32P
T2 sequence: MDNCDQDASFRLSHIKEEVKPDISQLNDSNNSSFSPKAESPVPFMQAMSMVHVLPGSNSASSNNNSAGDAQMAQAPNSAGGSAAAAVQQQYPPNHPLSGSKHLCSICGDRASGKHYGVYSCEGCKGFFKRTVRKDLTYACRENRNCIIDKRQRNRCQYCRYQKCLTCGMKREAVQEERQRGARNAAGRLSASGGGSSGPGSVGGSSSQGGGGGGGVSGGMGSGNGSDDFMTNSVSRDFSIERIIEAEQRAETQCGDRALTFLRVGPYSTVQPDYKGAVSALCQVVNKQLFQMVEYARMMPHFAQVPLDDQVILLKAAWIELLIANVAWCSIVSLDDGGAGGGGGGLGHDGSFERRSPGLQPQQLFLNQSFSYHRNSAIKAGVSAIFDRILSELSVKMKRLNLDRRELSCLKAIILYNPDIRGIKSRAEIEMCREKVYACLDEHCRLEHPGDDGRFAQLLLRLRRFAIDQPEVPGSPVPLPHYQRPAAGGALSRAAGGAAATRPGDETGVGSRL
Description: as §1
(§2) Neither in vitro translated usp alone, nor RARα alone, bound to a βRARE probe. However, when the two proteins were incubated together, a prominent retarded complex appeared. This complex comigrated with the complex detected in the RAR and cell extract mixing experiments. […] Either the affinity purified usp antibody, or the RARα, specifically affected the protein/ DNA complex, while preimmune sera had no effect. […]

usp/RARα heterodimer = biological target: T3, usp/RARα heterodimer (Drosophila melanogaster / Homo sapiens, UniProt P20153;P10276 P20153:1-508,P10276:1-462); experiment: EMSA; prominent complex; affected by usp and RARα antibodies; settings: label: 32P
T3 sequence 1: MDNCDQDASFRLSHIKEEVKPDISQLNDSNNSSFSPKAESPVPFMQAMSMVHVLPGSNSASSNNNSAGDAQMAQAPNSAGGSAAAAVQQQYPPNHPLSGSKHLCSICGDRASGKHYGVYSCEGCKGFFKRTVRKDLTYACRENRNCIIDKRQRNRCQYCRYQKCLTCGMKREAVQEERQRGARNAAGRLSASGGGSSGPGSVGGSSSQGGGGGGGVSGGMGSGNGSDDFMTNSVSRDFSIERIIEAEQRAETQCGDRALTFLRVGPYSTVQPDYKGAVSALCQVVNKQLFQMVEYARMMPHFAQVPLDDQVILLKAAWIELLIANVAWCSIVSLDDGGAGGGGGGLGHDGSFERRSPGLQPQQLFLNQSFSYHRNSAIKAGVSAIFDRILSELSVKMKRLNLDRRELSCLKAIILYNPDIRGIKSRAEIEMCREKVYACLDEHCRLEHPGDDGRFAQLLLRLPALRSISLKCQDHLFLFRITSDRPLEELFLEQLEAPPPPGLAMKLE
T3 sequence 2: T1 sequence
Description: as §1, §2

EcR/usp heterodimer [2] = biological target: T4, EcR/usp heterodimer (Drosophila melanogaster, UniProt P34021;P20153 P34021:1-878,P20153:1-508); experiment: competition; does not compete hsp27-EcRE binding
T4 sequence 1: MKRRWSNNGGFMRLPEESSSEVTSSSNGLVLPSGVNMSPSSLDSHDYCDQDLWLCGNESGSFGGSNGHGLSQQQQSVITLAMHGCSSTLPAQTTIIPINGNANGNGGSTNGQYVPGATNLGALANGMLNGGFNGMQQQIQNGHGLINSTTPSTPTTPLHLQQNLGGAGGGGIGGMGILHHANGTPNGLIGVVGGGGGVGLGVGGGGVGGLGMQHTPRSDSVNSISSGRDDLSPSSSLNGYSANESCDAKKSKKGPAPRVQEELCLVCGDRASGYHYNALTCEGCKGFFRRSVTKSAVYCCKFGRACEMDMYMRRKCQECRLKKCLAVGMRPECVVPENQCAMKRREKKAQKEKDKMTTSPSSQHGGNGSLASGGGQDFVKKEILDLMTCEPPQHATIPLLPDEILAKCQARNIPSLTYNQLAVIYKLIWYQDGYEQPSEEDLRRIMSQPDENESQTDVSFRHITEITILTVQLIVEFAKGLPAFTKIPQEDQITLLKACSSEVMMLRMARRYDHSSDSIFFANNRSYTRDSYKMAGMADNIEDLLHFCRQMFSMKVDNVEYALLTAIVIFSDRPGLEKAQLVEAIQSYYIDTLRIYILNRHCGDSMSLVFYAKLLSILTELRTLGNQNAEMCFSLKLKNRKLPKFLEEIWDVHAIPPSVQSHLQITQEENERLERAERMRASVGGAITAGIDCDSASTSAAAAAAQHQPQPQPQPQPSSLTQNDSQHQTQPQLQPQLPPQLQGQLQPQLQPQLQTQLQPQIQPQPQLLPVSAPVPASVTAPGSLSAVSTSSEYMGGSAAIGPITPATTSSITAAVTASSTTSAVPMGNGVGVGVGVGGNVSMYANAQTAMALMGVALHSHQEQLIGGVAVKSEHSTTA
T4 sequence 2: T3 sequence 1

Ecdysone receptor (EcR) = biological target: T5, Ecdysone receptor (EcR) (Drosophila melanogaster, UniProt P34021 P34021:1-878); experiment: EMSA; EcR alone; settings: label: 32P
T5 sequence: T4 sequence 1
Description: as §1
(§3) The EcR and usp interaction was also tested under more defined conditions. In vitro translated EcR and usp were prepared and their interaction was assayed by gel mobility shift assays. […] To test whether usp can complement EcR DNA binding, as it does with mammalian receptors, both usp and EcR were co-incubated in the reaction. In the presence of both receptors, a novel high affinity DNA binding complex appeared. […] This complex is proposed to be a heterodimeric species, which is consistent with the observation of other usp heterodimers.

EcR/usp heterodimer [3] = biological target: T4, EcR/usp heterodimer; experiment: EMSA; high affinity complex; usp antibody supershift; settings: label: 32P
Description: as §1, §3

ultraspiracle (usp) [4] = biological target: T2, ultraspiracle (usp); experiment: EMSA; usp alone; settings: label: 32P; remark: listed apart in the source
Description: as §1, §3

EcR/usp heterodimer [5] = biological target: T4, EcR/usp heterodimer; experiment: competition; effective competitor of hsp27-EcRE binding
EcR/usp heterodimer [6] = biological target: T4, EcR/usp heterodimer; experiment: competition; competes as effectively as hsp27-EcRE
usp/TRβ heterodimer = biological target: T6, usp/TRβ heterodimer (Drosophila melanogaster / Homo sapiens, UniProt P20153;P10828 P20153:1-508,P10828:1-461); experiment: EMSA; usp dependent; usp antibody supershift; settings: label: 32P
T6 sequence 1: T3 sequence 1
T6 sequence 2: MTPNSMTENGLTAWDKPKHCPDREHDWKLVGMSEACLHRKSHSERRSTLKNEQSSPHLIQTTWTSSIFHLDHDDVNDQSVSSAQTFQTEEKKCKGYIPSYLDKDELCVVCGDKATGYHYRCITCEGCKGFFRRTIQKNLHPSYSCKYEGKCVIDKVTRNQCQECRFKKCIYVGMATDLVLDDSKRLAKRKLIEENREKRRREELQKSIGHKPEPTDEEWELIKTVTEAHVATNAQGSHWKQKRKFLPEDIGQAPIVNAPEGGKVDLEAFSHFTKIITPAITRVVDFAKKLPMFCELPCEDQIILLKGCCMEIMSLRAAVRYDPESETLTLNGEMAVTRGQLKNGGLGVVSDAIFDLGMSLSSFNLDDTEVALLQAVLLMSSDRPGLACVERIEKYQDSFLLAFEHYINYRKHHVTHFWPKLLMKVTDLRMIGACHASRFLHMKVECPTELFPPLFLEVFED
Description: as §1
Using in vitro translated usp protein, interaction of usp with three mammalian nuclear receptors (TRβ, VDR and PPAR) was tested in gel mobility shift assays with the appropriate response element for each of the three receptors as the probes.

11N-EcRE: mutant hsp27-EcRE, two nucleotides at the ends of the palindrome and the flanking sequence changed (DNA ATGCTGTGCATTGAACGTGCTCGA; further chemistry not given here)
competition of EcR/usp binding to hsp27-EcRE (EcR/usp complex): did not compete

15N-EcRE: back mutation of hsp27-EcRE which regenerated the palindrome motif (DNA ATGAAGTGCATTGAACCCGCTCGA; further chemistry not given here)
competition of EcR/usp binding to hsp27-EcRE (EcR/usp complex): effective competition

Eip28/29-EcRE: EcRE derived from the Drosophila Eip28/29 gene, composite element with direct repeat and degenerated palindromic motif (DNA TAAAGGATCTTGACCCCAATGAACTTCTTA; further chemistry not given here)
competition of EcR/usp binding to hsp27-EcRE (EcR/usp complex): can effectively compete

B1: βRARE (DR5) (dsDNA)
DNA 1: GGTTCACCGAAAGTTCA
DNA 2: TGAACTTTCGGTGAACC
binding result (RARα (human)): no binding | binding result (ultraspiracle (usp) [1]): no binding | binding result (usp/RARα heterodimer): binds

B2: 11N-EcRE (dsDNA)
DNA 1: ATGCTGTGCATTGAACGTGCTCGA
DNA 2: TCGAGCACGTTCAATGCACAGCAT
binding result (EcR/usp heterodimer [2]): no binding

B3: hsp27-EcRE (dsDNA)
DNA 1: ATTGGACAAGTGCATTGAACCCTTGTCTCT
DNA 2: AGAGACAAGGGTTCAATGCACTTGTCCAAT
binding result (Ecdysone receptor (EcR)): no binding | binding result (EcR/usp heterodimer [3]): binds | binding result (ultraspiracle (usp) [4]): no binding

B4: 15N-EcRE (dsDNA)
DNA 1: ATGAAGTGCATTGAACCCGCTCGA
DNA 2: TCGAGCGGGTTCAATGCACTTCAT
binding result (EcR/usp heterodimer [5]): binds

B5: Eip28/29-EcRE (dsDNA)
DNA 1: TAAAGGATCTTGACCCCAATGAACTTCTTA
DNA 2: TAAGAAGTTCATTGGGGTCAAGATCCTTTA
binding result (EcR/usp heterodimer [6]): binds

B6: MLV-TRE (DR4) (dsDNA)
DNA 1: GGGTCATTTCAGGTCC
DNA 2: GGACCTGAAATGACCC
binding result (usp/TRβ heterodimer): binds
